Our source for the Kd values is article PMC9097884 (2022).

The target in the assay is SARS-CoV-2 S1 (residues 1-682, Wuhan-Hu-1) (SARS-CoV-2 (Wuhan-Hu-1 strain), UniProt P0DTC2 14-682). In words: BLI. For orientation: Biolayer interferometry detects binding as a change in optical thickness at a sensor tip.

B1: 87G7 human monoclonal antibody (recombinant human IgG1/kappa) (antibody, V domains shown)
VH: EVQLLESGGGLVQPGGSLRLSCVASGFTFSSYVMSWVRQAPGKGLEWVAAISGSGGNTYYADSVKGRFTISRDNSKNTLYLQMNSLRAEDTAVYYCAKEGTYYYGSGSFWGQGTLVTVSS
VL: EIVLTQSPATLSLSPGERATLSCRASQSFHNYLAWYQQKPGRAPRLLIFDASNRATGIPARFSGSGSGTDFTLTISSLEPEDFAVYYCQQRFNWPLTFGGGTKVEIK
As for B1, the Kd (in general, the free concentration of one partner at which half of the binding sites on the other are occupied at equilibrium, for simple one-to-one binding) was determined as 2.89 nM. This counts as single-digit nanomolar.
